# Reference: US20190185581A1 (University of California, published 2019)
# T1: catalytic domain of MMP-9 (cdMMP-9) (human, UniProt P14780 107-443, limits assumed)
# T1 sequence: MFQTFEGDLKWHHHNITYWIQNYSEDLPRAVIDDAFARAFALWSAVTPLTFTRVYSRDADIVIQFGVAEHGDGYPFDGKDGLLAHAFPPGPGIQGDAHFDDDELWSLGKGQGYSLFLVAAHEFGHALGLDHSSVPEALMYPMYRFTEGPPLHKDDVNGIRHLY
# B1: N-terminal inhibitory domain of tissue inhibitor of metalloproteinase-2 (n-TIMP-2) (other, UniProt P16035 27-153, looked up)
# chain: CSCSPVHPQQAFCNADVVIRAKAVSEKEVDSGNDIYGNPIKRIQYEIKQIKMFKGPEKDIEFIYTAPSSAVCGVSLDVGGKKEYLIAGKAEGDGKMHITLCDFIVPWDTLSTTQKKSLNHRYQMGCE
# notes: domain: N-terminal domain
# B2: Fab 3D9 (Fab, V domains shown)
# VH: EVQLVESGGGLVQPGGSLRLSCAASGFNIYSSSIHWVRQAPGKGLEWVASIYSSYGYTYYADSVKGRFTISADTSKNTAYLQMNSLRAEDTAVYYCARRLMAYHGSCSSRLCQTAISPQRYAMDYWGQGTLVTVSS
# VL: DIQMTQSPSSLSASVGDRVTITCRASQSVSSAVAWYQQKPGKAPKLLIYSASSLYSGVPSRFSGSRSGTDFTLTISSLQPEDFATYYCQQSSYSLITFGQGTKVEIKR
# notes: not shown: His tag at the C-terminus of the heavy chain
# B3: Fab R2C14 (Fab, V domains shown)
# VH: EVQLVESGGGLVQPGGSLRLSCAASGFNIYSSSIHWVRQAPGKGLEWVASIYSYSGYTYYADSVKGRFTISADTSKNTAYLQMNSLRAEDTAVYYCARVSNRYNRSSASIAGLQLFRPYGMDYWGQGTLVTVSS
# VL: B2 VL
# B4: Fab 33D2 (Fab, V domains shown)
# VH: EVQLVESGGGLVQPGGSLRLSCAASGFNLYYSSIHWVRQAPGKGLEWVAYISSYSGYTSYADSVKGRFTISADTSKNTAYLQMNSLRAEDTAVYYCARSKYGPASRQLASRTSWSGPRGKYGMDYWGQGTLVTVSS
# VL: DIQMTQSPSSLSASVGDRVTITCRASQSVSSAVAWYQQKPGKAPKLLIYSASSLYSGVPSRFSGSRSGTDFTLTISSLQPEDFATYYCQQAYGSYLITFGQGTKVEIKR
# notes: as for B2
# B5: MMP-14 catalytic domain mutant F260A (enzyme)
# chain: not shown
# notes: also called F260A MMP-14 mutant
# B6: Fab R2C5 (Fab, V domains shown)
# VH: EVQLVESGGGLVQPGGSLRLSCAASGFNLSSYYMHWVRQAPGKGLEWVASIYPYSSYTSYADSVKGRFTISADTSKNTAYLQMNSLRAEDTAVYYCARIMKIKRNSLKFRGFVPLQMQYVMDYWGQGTLVTVSS
# VL: DIQMTQSPSSLSASVGDRVTITCRASQSVSSAVAWYQQKPGKAPKLLIYSASSLYSGVPSRFSGSRSGTDFTLTISSLQPEDFATYYCQQSYGLFTFGQGTKVEIKR
# Key:
# [1] = biological target: T2, catalytic domain of MMP-14 (cdMMP-14) (human, UniProt P50281 114-287, limits assumed, biotinylated (Sulfo-NHS-LC-Biotin) where immobilised via streptavidin); assay: cell-based or functional assay
# [2] = biological target: T2, catalytic domain of MMP-14 (cdMMP-14); assay: competitive ELISA: serially diluted n-TIMP-2 with Fab 3A2 fixed at 10 nM on biotinylated cdMMP-14 on streptavidin wells; bound Fab detected with anti-Fab-HRP; competitor: Fab 3A2
# [3] = biological target: T2, catalytic domain of MMP-14 (cdMMP-14); assay: cell-based or functional assay; remark: listed apart in the source
# [4] = biological target: T2, catalytic domain of MMP-14 (cdMMP-14); assay: ELISA, Fab titrated on immobilised MMP-14 catalytic domain, anti-Fab-HRP
# Experimental: Bound Fabs were detected using the anti-Fab-HRP conjugate. The half-maximal effective concentration (EC₅₀) was calculated from a four-parametric logistic curve-fitting analysis.
# [5] = biological target: catalytic domain of MMP-2 (human, UniProt P08253 115-449, limits assumed, biotinylated (Sulfo-NHS-LC-Biotin)); assay: ELISA, purified Fab at 50, 100, 250 and 500 nM on immobilised MMP catalytic domain, anti-Fab-HRP, OD450
# [6] = biological target: T1, catalytic domain of MMP-9 (cdMMP-9); assay: as above
# [7] = biological target: T2, catalytic domain of MMP-14 (cdMMP-14); assay: cell-based or functional assay; remark: listed apart in the source
# [8] = biological target: T2, catalytic domain of MMP-14 (cdMMP-14); assay: ELISA, Fab titrated on immobilised biotin-cdMMP-14, anti-Fab-HRP
# [9] = biological target: T1, catalytic domain of MMP-9 (cdMMP-9); assay: competitive ELISA: Fab R2C14 at its IC50 concentration pre-incubated with soluble cdMMP-9, then added to a plate coated with 100 nM cdMMP-14; anti-Fab-HRP
# [10] = biological target: T1, catalytic domain of MMP-9 (cdMMP-9); assay: ELISA on MMP-2, MMP-9 and MMP-14 catalytic domains
# Fab 3A2 = biological target: T3, Fab 3A2; assay: competitive ELISA: 10 nM Fab 3A2 pre-incubated with soluble MMP-14 mutant, then captured on immobilised wild-type MMP-14; anti-Fab-HRP
# T3 construct: also called R3C9; not shown: His tag at the C-terminus of the heavy chain
# [11] = biological target: T1, catalytic domain of MMP-9 (cdMMP-9); assay: competitive ELISA: Fab R2C5 at its IC50 concentration pre-incubated with soluble cdMMP-9, then added to a plate coated with 100 nM cdMMP-14; anti-Fab-HRP
# Sequence of catalytic domain of MMP-2 (P08253 other isoform, or with tags, fused parts or gaps limits assumed): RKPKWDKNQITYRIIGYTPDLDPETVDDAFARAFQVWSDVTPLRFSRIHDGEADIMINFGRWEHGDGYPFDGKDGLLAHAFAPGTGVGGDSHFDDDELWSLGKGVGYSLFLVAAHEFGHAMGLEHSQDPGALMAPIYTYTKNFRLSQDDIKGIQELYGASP
binder,measurement,setting,value
B1,inhibitory IC50 (FRET peptide substrate),[1],5.1 nM
same,IC50 (read off the curve),[2],~30 nM
B2,IC50 of inhibition at neutral pH 7.5,[1],65 nM
same,IC50 of inhibition at pH 6.5,[1],10.5 nM
same,IC50 of inhibition at pH 8.5,[1],157 nM
same,IC50 by FRET Assay,[3],61 nM
same,EC50,[4],6.4 nM
same,binding result,[5],no binding (tested: 500 nM)
same,binding result,[6],no binding (tested: 500 nM)
B3,Inhibition potency (FRET IC50),[7],10 nM
same,EC50,[8],1200 nM
same,binding result,[9],no binding (tested: about 4000 nM (log10(nM) about 3.6))
B4,IC50 by FRET Assay,[3],420 nM
same,"Selectivity over MMP-2/-9 (ratio of Fab concentrations giving the same ELISA signal, MMP-2/-9 against MMP-14)",[10],9.6 fold
same,EC50,[4],120 nM
B5,binding result,Fab 3A2,no binding (tested: about 2000 nM (log10(nM) 3.3))
B6,Inhibition potency (FRET IC50),[7],50 nM
same,EC50,[8],375 nM
same,binding result,[11],no binding (tested: about 4000 nM (log10(nM) about 3.6))
